# Measurements from paper PMC5624926 (2017).
# Positions count from the first letter of the chain named. Numbers in names are those of the source. Like-named read-outs stand apart in the source and are kept apart here.
# B1: epratuzumab Y(L27D)A (antibody, V domains shown)
# VH: QVQLVQSGAEVKKPGSSVKVSCKASGYTFTSYWLHWVRQAPGQGLEWIGYINPRNDYTEYNQNFKDKATITADESTNTAYMELSSLRSEDTAFYFCARRDITTFYWGQGTTVTVSS
# VL: DIQLTQSPSSLSASVGDRVTMSCKSSQSVLASANHKNYLAWYQQKPGKAPKLLIYWASTRESGVPSRFSGSGSGTDFTLTISSLQPEDIATYYCHQYLSSWTFGGGTKLEIKR
# B2: epratuzumab Fab (Fab, V domains shown)
# VH: B1 VH
# VL: DIQLTQSPSSLSASVGDRVTMSCKSSQSVLYSANHKNYLAWYQQKPGKAPKLLIYWASTRESGVPSRFSGSGSGTDFTLTISSLQPEDIATYYCHQYLSSWTFGGGTKLEIK
# B3: epratuzumab N(H52)A (antibody, V domains shown)
# VH: B1 VH with N52A
# VL: B1 VL with A31Y
# Columns and labels:
# CD22_(20–687) [1] = biological target: T1, CD22_(20–687) (human, UniProt P20273 20-687, N-linked glycans; glycoform not stated); assay: BLI
# CD22_(20–687) [2] = biological target: T1, CD22_(20–687); assay: BLI; remark: listed apart in the source
Binder,Kd (CD22_(20–687) [1]) [nM],Kd (CD22_(20–687) [2]) [nM]
B1,1700,–
B2,–,120
B3,260,–
